Biological target: chimeric avidin mutant A/A2-B I109K
Test: SDS-PAGE stability assay; 55 µM acetylated protein in pH 7 buffer, with or without biotin-5-fluorescein, 20 min at 20-100°C, sample buffer without SDS, 15% gel; control boiled with 2% SDS and 0.5% β-mercaptoethanol

## chimeric avidin mutant A/A2-B I109K
  stoichiometry N: 4

— PMC3954883
